Reference: patent US20250018037A1 (SEOUL NATIONAL UNIVERSITY R AND DB FOUNDATION, published 2025)
No end group written: not given here. *: point of attachment. Biotin = O=C1N[C@H]2[C@H](CS[C@H]2CCCCC(=O)*)N1

Columns and labels:
[1] = biological target: T1, Human CD40 on cells (Raji, Daudi, IM-9) (human, UniProt P25942 21-277); experiment: flow cytometry on Raji cells, anti-Myc staining (axis Myc); number not labelled as MFI on the sheet; 2nd Ab only -30.7
T1 construct: whole, on cells; also called cell surface CD40; hCD40
T1 sequence (P25942 21-277): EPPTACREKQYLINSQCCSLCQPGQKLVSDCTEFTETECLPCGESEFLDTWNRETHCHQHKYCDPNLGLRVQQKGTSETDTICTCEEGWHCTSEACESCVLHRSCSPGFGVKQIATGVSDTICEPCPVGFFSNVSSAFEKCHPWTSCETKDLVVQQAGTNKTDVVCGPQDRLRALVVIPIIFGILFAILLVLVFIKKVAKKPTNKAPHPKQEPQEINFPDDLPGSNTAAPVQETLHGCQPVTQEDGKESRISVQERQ

[2] = biological target: T2, biotin-labeled c-Myc peptide (Biotin-GGGGSEQKLISEEDL); experiment: flow cytometry of human T cells 8 days after transduction, stained with biotin-labeled c-Myc peptide plus streptavidin-PE; axis Myc CAR
T2 construct: It is not the BSA conjugate m23; also called biotin c-Myc peptide; stain for Myc CAR
T2 peptide: Biotin-GGGGSEQKLISEEDL
Procedure: After 24 h, the activated T cells were harvested, resuspended (1×10⁶/ml) in a TM media containing human IL-7, human IL-15, and the lentiviral concentrate, and cultured for two days for CAR transduction. After washing the transduced T cells, the cells were expanded in TM media with human IL-7 and human IL-15 for eight days before use. CAR expression on the cell surface was determined by flow cytometry using biotin-labeled 6×His peptide (Biotin-[…]; Peptron) for hHis CAR-T or biotin-labeled c-Myc peptide (Biotin-[…]; Peptron) for hMyc CAR-T and PE-labeled streptavidin (Biolegend).

[3] = biological target: T3, BSA-conjugated c-Myc peptide (also: conjugated to BSA by thiol-maleimide reaction, thiol residue not given here); experiment: indirect ELISA after bio-panning against BSA-conjugated c-Myc peptide
T3 construct: also called the antigen
T3 peptide: EQKLISEEDL

[4] = biological target: T4, CD40-hFc protein (Acro Biosystems, #CD0-H5253) (UniProt P25942 21-193); experiment: SPR (Biacore 8K): CD40-hFc captured on immobilized anti-human Fc IgG, scFv injected in 2-fold dilutions (6 curves)
T4 construct: Bought protein
T4 sequence (P25942 21-193 limits assumed): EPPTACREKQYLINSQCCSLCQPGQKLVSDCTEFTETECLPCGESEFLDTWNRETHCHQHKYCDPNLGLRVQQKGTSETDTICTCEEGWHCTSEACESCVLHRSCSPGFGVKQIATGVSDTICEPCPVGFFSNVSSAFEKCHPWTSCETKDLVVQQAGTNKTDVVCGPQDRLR
Text: (§1) Since the murine anti-His antibody had decreased binding affinity against 6×His peptide after humanization, affinity maturation was further performed to increase it and chicken anti-CD40 antibody (2B1) was only humanized. Serial dilution antibodies at 6 concentrations were used to characterize the kinetics of antibody-antigen binding by SPR. […] So, there was not affinity loss against their antigen after humanization (FIG. 22B).
(§2) A Biacore 8K SPR system (Cytiva) equipped with CM5 sensor chip (Cytiva) was used to generate binding kinetic rate and affinity constants. To prepare the capture surfaces for anti-His antibodies, streptavidin was immobilized, followed by biotin conjugated 6×His peptide was captured. The antibodies were 2-fold serial diluted with 1×PBS, then injected at a flow rate of 30 μL/min for 3 minutes, allowing 10 minutes dissociation phase. The surface was regenerated using 10 mM glycine, pH 1.5. The kinetics were analyzed using Biacore 8K evaluation software, version 1.0 (Cytiva). In case of anti-CD40 antibodies, anti-human Fc IgG (Jackson ImmunoResearch) was immobilized, and then CD40-hFc protein (Acro Biosystems, #CD0-H5253) was captured. The antibodies were 2-fold serial diluted with HBS-EP+ buffer (10 mm HEPES, 150 mm sodium chloride, 3 mm EDTA, 0.05% Polysorbate 20), then injected at a flow rate of 30 μL/min for 4 minutes, allowing >15 minutes dissociation phase.

[5] = biological target: T5, Biotin conjugated 6×His peptide (also: biotin conjugated, site not given here); experiment: SPR (Biacore 8K): biotin 6×His peptide captured on immobilized streptavidin, scFv injected in 2-fold dilutions (6 curves)
T5 construct: also called histidine hexamer peptide
T5 peptide: HHHHHH
Text: as §1, §2

B1: 2B1-L1-Myc-Ck (scFv)
scFv: QAALTQPSSVSANPGETVKITCSGGDSYAGSYYYGWFQQKAPGSAPVTVIYYNDKRPSDIPSRFSGSTSGSTSTLTITGVQAEDEAVYYCGSIDTSSGTGIFGAGTTLTVLGQSSRSSGGGGSSGGGGSAVTLDESGGGLQTPGGALSLVCKGSGFTFSSYQMFWVRQAPGKGLEYVAEISGSGLSTWYAPAVKGRATISRDNGQSTVRLQLNNLRAEDTGTYYCAKAAGSCGVGTCAGGIVDGIDAWGHGTEVIVSSTSGQAGQGGGGSEQKLISEEDLRTVAAPSVFIFPPSDEQLKSGTASVVCLLNNFYPREAKVQWKVDNALQSGNSQESVTEQDSKDSTYSLSSTLTLSKADYEKHKVYACEVTHQGLSLPVTKSFNRGES
[1]
  MFI: 2400

B2: hMyc (8A9) CAR (8A9-BBz), on human T cells (other)
chain: LTQPSSVSANPGETVEITCSGGSSGYYGWHQQKSPGSAPVTVIYENTNRPSDIPSRFSGSKSGSTATLTITGVQADDEAVYFCGSYDSSSASGIFGAGTTLTVLGQSSRSSGGGGSSGGGGSAVTLDESGGGLQTPGGGLSLVCKASGFTFSSYDMAWVRQEPGKGLEYVASISRSGRYTRYGPAVKGRATISRDNGQSTVRLQLNNLRAEDTATYFCTRGGAVSIDTWGHGTEVIVSSTTTPAPRPPTPAPTIASQPLSLRPEACRPAAGGAVHTRGLDFACDIYIWAPLAGTCGVLLLSLVITLYCKRGRKKLLYIFKQPFMRPVQTTQEEDGCSCRFPEEEEGGCELRVKFSRSADAPAYKQGQNQLYNELNLGRREEYDVLDKRRGRDPEMGGKPRRKNPQEGLYNELQKDKMAEAYSEIGMKGERRRGKGHDGLYQGLSTATKDTYDALHMQALPPR
notes: also called hMyc CAR-T cells (8A9)
[2]
  number over the gate bar (percent of cells in the gate): 21.9

B3: Anti-Myc scFv clone 7A1 (scFv)
scFv: QAALTQPSSVSVNPGETVKITCSGGGSSSYYGWYQQKSPGSAPVTLIYQNTNRPSNIPSRFSGSTSGSTGTLTITGVQAEDEAVYFCGSRDSSGDGIFGAGTTLTVLGQSSRSSGGGGSSGGGGSAVTLDESGGGLQTPGRALSLVCKASGFTFSSYDMAWVRQEPGKGLEYVASISRSGRYTRYGPAVKGRATISRDNGQSTVRLQLNNLRAEDTATYFCTRGGAVSIDTWGHGTEVIVSS
notes: Selected from a chicken scFv phage library by indirect ELISA
[3]
  binding result: binds

B4: hMyc (3A6) CAR (3A6-BBz), on human T cells (other)
chain: LTQPSSVSANLGGTVKITCSGGGGSDDGSYYYSWHQQKSPGSAPVTVIYENNNRPSDIPSRFSGSKSGSTATLTITGVQAEDEAVYYCGSRDSSYVDYVGIFGAGTTLTVLGQSSRSSGGGGSSGGGGSAVTLDESGGGLQTPGRALSLVCKASGFTFSSYDMAWVRQEPGKGLEYVASISRSGRYTRYGPAVKGRATISRDNGQSTVRLQLNNLRAEDTATYFCTRGGAVSIDTWGHGTEVIVSSTTTPAPRPPTPAPTIASQPLSLRPEACRPAAGGAVHTRGLDFACDIYIWAPLAGTCGVLLLSLVITLYCKRGRKKLLYIFKQPFMRPVQTTQEEDGCSCRFPEEEEGGCELRVKFSRSADAPAYKQGQNQLYNELNLGRREEYDVLDKRRGRDPEMGGKPRRKNPQEGLYNELQKDKMAEAYSEIGMKGERRRGKGHDGLYQGLSTATKDTYDALHMQALPPR
notes: also called hMyc CAR-T cells (3A6)
[2]
  number over the gate bar (percent of cells in the gate): 38.9

B5: Anti-Myc scFv clone 3A6 (scFv)
scFv: QAALTQPSSVSANLGGTVKITCSGGGGSDDGSYYYSWHQQKSPGSAPVTVIYENNNRPSDIPSRFSGSKSGSTATLTITGVQAEDEAVYYCGSRDSSYVDYVGIFGAGTTLTVLGQSSRSSGGGGSSGGGGSAVTLDESGGGLQTPGRALSLVCKASGFTFSSYDMAWVRQEPGKGLEYVASISRSGRYTRYGPAVKGRATISRDNGQSTVRLQLNNLRAEDTATYFCTRGGAVSIDTWGHGTEVIVSS
notes: Selected from a chicken scFv phage library by indirect ELISA; Later produced with an 8×His tag
[3]
  binding result: binds

B6: Chicken anti-CD40 scFv (2B1) (scFv)
scFv: QAALTQPSSVSANPGETVKITCSGGDSYAGSYYYGWFQQKAPGSAPVTVIYYNDKRPSDIPSRFSGSTSGSTSTLTITGVQAEDEAVYYCGSIDTSSGTGIFGAGTTLTVLGQSSRSSGGGGSSGGGGSAVTLDESGGGLQTPGGALSLVCKGSGFTFSSYQMFWVRQAPGKGLEYVAEISGSGLSTWYAPAVKGRATISRDNGQSTVRLQLNNLRAEDTGTYYCAKAAGSCGVGTCAGGIVDGIDAWGHGTEVIVSS
notes: also called parental antibody of the humanized anti-CD40 scFv; 2B1 scFv
[4]
  Kd: 0.00283 µM
  koff: 0.00588 s⁻¹
  kon: 2.08e+06 M⁻¹ s⁻¹

B7: Anti-Myc scFv clone 8A9 (scFv)
scFv: QAALTQPSSVSANPGETVEITCSGGSSGYYGWHQQKSPGSAPVTVIYENTNRPSDIPSRFSGSKSGSTATLTITGVQADDEAVYFCGSYDSSSASGIFGAGTTLTVLGQSSRSSGGGGSSGGGGSAVTLDESGGGLQTPGGGLSLVCKASGFTFSSYDMAWVRQEPGKGLEYVASISRSGRYTRYGPAVKGRATISRDNGQSTVRLQLNNLRAEDTATYFCTRGGAVSIDTWGHGTEVIVSS
notes: as for B3
[3]
  binding result: binds

B8: Murine anti-His scFv (scFv)
scFv: DILMTQTPSSLPVSLGDQASISCRSSQSIVHSNGNTYLEWYLQKPGQSPKLLIYKVSNRFSGVPDRFSGSGSGTDFTLKISRVEAEDLGVYYCFQGSHVPFTFGSGTKLEIKRGGGGSGGGGSGGGGSGGGGSQVQLQQSGPEDVKPGASVKISCKASGYTFTDYYMNWVKQSPGKGLEWIGDINPNNGGTSYNQKFKGRATLTVDKSSSTAYMELRSLTSEDSSVYYCESQSGAYWGQGTTVTVSA
notes: also called anti-His (3D5M) scFv
[5]
  Kd: 0.0366 µM
  koff: 0.00547 s⁻¹
  kon: 149000 M⁻¹ s⁻¹

B9: hMyc (7A1) CAR (7A1-BBz), on human T cells (other)
chain: LTQPSSVSVNPGETVKITCSGGGSSSYYGWYQQKSPGSAPVTLIYQNTNRPSNIPSRFSGSTSGSTGTLTITGVQAEDEAVYFCGSRDSSGDGIFGAGTTLTVLGQSSRSSGGGGSSGGGGSAVTLDESGGGLQTPGRALSLVCKASGFTFSSYDMAWVRQEPGKGLEYVASISRSGRYTRYGPAVKGRATISRDNGQSTVRLQLNNLRAEDTATYFCTRGGAVSIDTWGHGTEVIVSSTTTPAPRPPTPAPTIASQPLSLRPEACRPAAGGAVHTRGLDFACDIYIWAPLAGTCGVLLLSLVITLYCKRGRKKLLYIFKQPFMRPVQTTQEEDGCSCRFPEEEEGGCELRVKFSRSADAPAYKQGQNQLYNELNLGRREEYDVLDKRRGRDPEMGGKPRRKNPQEGLYNELQKDKMAEAYSEIGMKGERRRGKGHDGLYQGLSTATKDTYDALHMQALPPR
notes: also called hMyc CAR-T cells (7A1)
[2]
  number over the gate bar (percent of cells in the gate): 19

B10: 2B1-Ck-L1-Myc (scFv)
scFv: QAALTQPSSVSANPGETVKITCSGGDSYAGSYYYGWFQQKAPGSAPVTVIYYNDKRPSDIPSRFSGSTSGSTSTLTITGVQAEDEAVYYCGSIDTSSGTGIFGAGTTLTVLGQSSRSSGGGGSSGGGGSAVTLDESGGGLQTPGGALSLVCKGSGFTFSSYQMFWVRQAPGKGLEYVAEISGSGLSTWYAPAVKGRATISRDNGQSTVRLQLNNLRAEDTGTYYCAKAAGSCGVGTCAGGIVDGIDAWGHGTEVIVSSTSGQAGQRTVAAPSVFIFPPSDEQLKSGTASVVCLLNNFYPREAKVQWKVDNALQSGNSQESVTEQDSKDSTYSLSSTLTLSKADYEKHKVYACEVTHQGLSSPVTKSFNRGESGGGGSEQKLISEEDL
[1]
  MFI: 1520

B11: 2B1-Ck-L2-Myc (scFv)
scFv: QAALTQPSSVSANPGETVKITCSGGDSYAGSYYYGWFQQKAPGSAPVTVIYYNDKRPSDIPSRFSGSTSGSTSTLTITGVQAEDEAVYYCGSIDTSSGTGIFGAGTTLTVLGQSSRSSGGGGSSGGGGSAVTLDESGGGLQTPGGALSLVCKGSGFTFSSYQMFWVRQAPGKGLEYVAEISGSGLSTWYAPAVKGRATISRDNGQSTVRLQLNNLRAEDTGTYYCAKAAGSCGVGTCAGGIVDGIDAWGHGTEVIVSSTSGQAGQRTVAAPSVFIFPPSDEQLKSGTASVVCLLNNFYPREAKVQWKVDNALQSGNSQESVTEQDSKDSTYSLSSTLTLSKADYEKHKVYACEVTHQGLSSPVTKSFNRGESGGGGSGGGSEQKLISEEDL
[1]
  MFI: 2070

B12: 2B1-Cκ-Myc (2B1-Cκ linked with C-terminal Myc peptide) (scFv)
scFv: QAALTQPSSVSANPGETVKITCSGGDSYAGSYYYGWFQQKAPGSAPVTVIYYNDKRPSDIPSRFSGSTSGSTSTLTITGVQAEDEAVYYCGSIDTSSGTGIFGAGTTLTVLGQSSRSSGGGGSSGGGGSAVTLDESGGGLQTPGGALSLVCKGSGFTFSSYQMFWVRQAPGKGLEYVAEISGSGLSTWYAPAVKGRATISRDNGQSTVRLQLNNLRAEDTGTYYCAKAAGSCGVGTCAGGIVDGIDAWGHGTEVIVSSTSGQAGQRTVAAPSVFIFPPSDEQLKSGTASVVCLLNNFYPREAKVQWKVDNALQSGNSQESVTEQDSKDSTYSLSSTLTLSKADYEKHKVYACEVTHQGLSSPVTKSFNRGESEQKLISEEDL
notes: also called 2B1-Ck-Myc; Myc peptide-tagged anti-hCD40 adaptor
[1]
  MFI: 1860
